The values that follow come from US20230090156A1 (NANYANG TECHNOLOGICAL UNIVERSITY, published 2023).

As a reminder, the Kd is the equilibrium constant for the complex coming apart. A higher Kd goes with weaker binding. In general, koff refers to the first-order rate constant of dissociation. In general, kon refers to the second-order rate constant of association. High values mean fast association, low ones slow association.

In this assay the target is T1, human cANGPTL4 (C-terminal fragment of Angiopoietin-like 4 protein) (human, UniProt Q9BY76 186-406, limits assumed).
T1 construct: domain: C-terminal fragment (cANGPTL4); Purified cANGPTL4 was immobilised by amine coupling on the CM5 chip for SPR and on carboxylated microwell plates for ELISA; also called purified cANGPTL4; human cANGPTL4 antigen
T1 sequence (looked up): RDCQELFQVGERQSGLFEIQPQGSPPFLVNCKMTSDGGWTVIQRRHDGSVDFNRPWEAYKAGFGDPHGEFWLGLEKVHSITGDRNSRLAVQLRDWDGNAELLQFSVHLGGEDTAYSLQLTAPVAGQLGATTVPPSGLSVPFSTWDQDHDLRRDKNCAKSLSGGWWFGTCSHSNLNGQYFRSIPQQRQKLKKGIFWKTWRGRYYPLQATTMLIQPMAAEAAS
The experiment in a line: SPR (BIACORE 3000), cANGPTL4 amine-coupled to CM5 chip, antibody as analyte. As for the experimental part: Surface Plasmon Resonance (SPR): Sensor CM5 chips and amine coupling kits were from GE Healthcare. Purified cANGPTL4 was immobilized onto a CM5-carboxylated dextran sensor chip by amine coupling using the Surface Prep Module of BIACORE 3000 as recommended by the manufacturer (BIAcore). Antuzumab (0.16, 0.32, 0.63, 1.25, 2.50, and 5.0 μm) diluted and buffered with 50 mm Tris, pH 8.0, was introduced into the cANGPTL4-conjugated CM5 chip at a flow rate of 5 μI/min for 10 min with running buffer (50 mm Tris, pH 8.0, 100 mm NaCl). After incubation for 45 s, the chamber was washed with the same buffer, and the bound molecules were subsequently eluted using 10 mm glycine, pH 6.0. The CM5 chip was reused after washing with running buffer for 10 min at 20 μI/min. Each sensorgram was corrected by subtracting a sensorgram obtained from a reference flow cell with no immobilized protein. Global fitting of the SPR data was used to determine the association (Kₐₛₛ) and dissociation (Kdiss) with Scrubber 2 software. Values are given as the mean±S.D. of three independent preparations of Antuzumab.
(In general: SPR reads the build-up and loss of mass on a sensor chip optically.)

B1: Antuzumab 1 (antibody, V domains shown)
VH: QVTLKESGPTLVKPTQTLTLTCTFSGFSLSTSGMGVGWIRQPPGKALEWLAHIWWDDDKYYNPSLKSRLTISKDTSKNQVVLTMTNMDPVDTATYYCARKDYGSSYDYWGQGTTVTVSS
VL: DIVMTQSPLSLPVTPGEPASISCKASQSVDYDGDSYLNWYLQKPGQSPRLLIYTASNLESGVPDRFSGSGSGTDFTLKISRVEAEDVGVYYCFQSNEDPWTFGQGTKLEIK
notes: Humanized monoclonal antibody made in CHO cells; also called ANG49; ANGH3 + ANGK3
B1: the “Fold increase (affinity against control 11F6C4)” value (from here on “Fold increase”) was found to be 7.86 fold, binding was put at a Kd of 1.05 nM, the koff was found to be 0.000693 s⁻¹ and the kon was determined as 658000 M⁻¹ s⁻¹.

B2: Antuzumab 2 (antibody, V domains shown)
VH: QITLKESGPTLVKPTQTLTLTCTFSGFSLSTSGMGVGWIRQPPGKALEWLAHIWWDDDKYYNPSLKSRLTITKDTSKNQVDLTMTFMDPWDTATYYCAHKDYGSSYDYWGQGTLVTVSS
VL: DIQMTQSPSSLSASVGDRVTITCKASQSVDYDGDSYLNWYQQKPGKAPNLLIYTASNLESGVPSRFSGSGSGTDFTLTISSLQPEDFATYYCQQSNEDPWTFGEGTKVEIK
notes: Humanized monoclonal antibody made in CHO cells; also called ANG50; ANGH4 + ANGK4
As for B2, the “Fold increase” value worked out at 5.37 fold, binding was characterised by a dissociation constant (Kd) of 1.54 nM, the koff was determined as 0.000764 s⁻¹ and the kon is 495000 M⁻¹ s⁻¹.

B3: Antuzumab 3 (antibody, V domains shown)
VH: QITLKESGPTLVKPTQTLTLTCTFSGFSLSTSGMGVGWIRQPPGKALEWLAHIWWDDDKYYNPSLKSRLTITKDTSKNQVVLTMTNMDPVDTATYYCARKDYGSSYDYWGQGTLVTVSS
VL: DIVMTQSPDSLAVSLGERATINCKASQSVDYDGDSYLNWYQQKPGQPPKLLIYTASNLESGVPDRFSGSGSGTDFTLTISSLQAEDVAVYYCQQSNEDPWTFGQGTKVEIK
notes: Humanized monoclonal antibody made in CHO cells; also called ANG27; ANGH1 + ANGK1
B3: the “Fold increase” value turned out to be 1.85 fold; the affinity, expressed as Kd, was 4.47 nM; the koff came out at 0.000948 s⁻¹; the kon amounted to 212000 M⁻¹ s⁻¹.

B4: murine monoclonal antibody mAb11F6C4 (antibody, V domains shown)
VH: QITLKESGPGILKPSQTLSLTCSFSGFSLSTSGMGVGWIRQPSGKGLEWLAHIWWDDDKYYNPSLKSQLTISKDTSRNQVFLKITSVDTADTATYYCARKDYGSSYDYWGQGTTLTVSS
VL: DIVLTQSPASLAVSLGQRATISCKASQSVDYDGDSYLNWFQQKPGQPPKLLIYTASNLESGIPARFSGSGSGTDFTLNIHPVEEEDAATYYCQQSNEDPWTFGGGTTLEIK
notes: Murine monoclonal antibody, the parent of the humanized antibodies; also called Control 11F6C4; original mouse-derived mAb
Consider B4, for which the “Fold increase” value was determined as 1 fold, binding was characterised by a dissociation constant (Kd) of 8.28 nM, the koff stood at 0.000905 s⁻¹ and the on-rate (kon) amounted to 109000 M⁻¹ s⁻¹.
